Assay results taken from a protein production outcome set (Wang et al. 2014).

Assay: label from the status in PepcDB records
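Further: failed if final PepcDB status was selected cloned or expressed and not failed if soluble or beyond.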

**Q.** Which protein production does the source give for “MKVLCINPPDDLAALLGDGASFVSTMEPLGLLYVAAACREAGHEVAFIDAYAENLDEETLMRRIRDAAPQVVSFTSFTSNGGFLYTFGRRLRQEMPGVHVLLGNVHATIYARQYLASGCCDVVVRGEGEEVMPALLRVLEEGGDLATVPSIAYVRDGVVAETGGHAFVRDLSTLPLPARDLTRKELYSFARTPNFSLYRTPEGKTEKHLFSSRGCVNRCTFCVAHKNIGIRVRPIDSVIGEVDLLLREYDAGYIFFCDSLFTSRKKRIIELSDALRHHFPGLRWGCEAHVNTIDEDSVRAMAAGGCVDMNFGIESGVDRLLTAVNKRQTTAQIADAIRMVKRVSRINAIGLFILGLPGERPEDSDATIDFACSLPLDMAQFSILTPYPGSPIFEQLRAEGIIDDGVRPGDTLDPEVWRRYSSYASFSDNKPIWVTPEHSVEGLLAAQKRALRRFYLRPRPFLIQLRRLRPADLLDTARTFFKTFF” here?
**A.** failed

**Q.** With “MKVLTDLQKRIFAIVKKENGKPIPPGIVVRMMENQAGFPGKQQVYRAIDDLLEWHIFRKSGGATNQLLINYELADPVLDQKFQGILNLGNKNTGFVRPLDDDKTVYYIHFSNLAGALDGDLVEFCPLDKPQVGDKFDAAVLKIVKRSRVLYAGNFLIEYSDFGQEFRIVADNPRFYLTPIVNKASVPAELESNTKVAFQIDEYDPANNLCKVSIQQILGNNDEPLINLKAIMLDHSIVFEDNDVVEQQAAKLQFDEKEQSKPYRKDLTELAFVTIDPATSKDLDDAIYVKRTDKGFVLYVAIADVAYYVQRNSELDIEARHKTSSIYLPGYYVVPMLPERLSNELCSLNPNEKRYVVVCELNFDHEARLNFSEVYPATIVSQRRFAYSEVNDWLEDSDALKDESATVLESLKAGFTLSELIAEQRKKKGTIDLSHSETEVVVDQNYYPIEIRFLTHGKAETMIENLMVVANEAVAWTLTNHKVHLPYRVHPRPSKKKLQMLLENIVELKITQPNFVLDTVTSTQIAAWLKENKDNPSYDIFVILLLRTLGKAFYIVNPLIHFSIGSHHYTHFTSPIRRYADLTVHRLLWMNLFTPERFTDTEREQLNAELEQICETINDTEIKINGCERTANDYLTTLYLSKQVGQTFHGFISAITSFGIFMRMDENNFDGLIKITSIPEDFFVFEKDRMVLRGKRTNKVFRIGDRLTAKLTEIDTVQKRAILTLV” as the sequence, how does the protein production read?
**A.** failed

**Q.** With “MKVRADFAFEKVARDWFVRWSKGRSEKYAGQVMRNFERWVFPAIGNLDIRQVRTADVVGCLRVMEARGIVDTLRKTKNSLKMVFAFAVGSGMMEINPVAQIGSGVFERLEHHHHHH” as the sequence, how does the protein production read?
**A.** not failed

**Q.** For “MKVSIIVPCYSVASKLPRCVHNLLAQTFTDWELILIDDGSTDNTWDICNSFTKNNAHIHAVHKENGGVSSARNTGIEIAKGEFITFIDSDDYVKPDYLQKLVEGQEADLVLCGFRSSTGIDFTPEPQYLIGDDLSKNIQAIVENDYLLYSPWCKLFRRDIIQKHQHRFDPEIRLGEDTIFCYKYLLYCSSIKVVASNSYFYDGVWGGYKKYVLTRQEVEYLDKAEITTLHDINQHFNCRIDLTYRGYHVAMLKGLYEKFRDYDTFEMYTRTHDVLPPEHFFANHKLSYIFWGIVELETLYVDKEYCAGKLFMQRLHHFFTIPTNQLLSYSYKMRLIHYLVKSKHYTMAHVLLIFLSILKHLEHHHHHH”, which protein production is on record?
**A.** failed

**Q.** For “MKVVGLDLGGTKIAAGVFDGKRLLSKVVVPTPKEGGERVAEALAEAAERAEREAGVRGEAIGLGTPGPLDFRRGVIRFAPNIPGVQDFPIRRILEEATGRPVFLENDANAAALAEHHLGAAQGEESSLYLTVSTGIGGGVVLGGRVLRGERGQGGELGHLTLLPGGPACGCGLEGCLEALAAGRALERDATYAFQRPVDTRELFRLFQAGDPKAERLVLQAARYVGIGLASLVKAFDPGVVVLGGGVALNAPEGYWEALLEAYRRYLQGWEAPPLRRARLGAEAGLLGAALTAYLEVKDGSG”, which protein production is on record?
**A.** not failed

**Q.** With “MKVYFDDIYVSTARQFELVDITDQVEQIVEKSGIKNGICLIFVAHSTAAIVANEHERGLMEDILTKIKEFTEPSRSWKHNLIDDNAHAHLGATFLGAERVFPVREGKLVRGTWQNIFLVELDGPRSERHITVEILGE” as the sequence, how does the protein production read?
**A.** not failed

**Q.** With “MKWARPSMHSSAQRKLIMTRILSIIGVSLCIAMLSPVLQAANLKTLDVAALPGDRIELKLAFDAPVPAPRGYTTAQPARIALDLPGVTSQLETKSRELGTGNARSVVVVQAQDRTRVIINLTTLAPYSSRVDGNNLFVVIGQGAAAAQASQPTTAMGAQRVAVPPPAPASARPFIPAGVKAIRNVDFQRGELGEGNVVIDLSNPSIAPDIQEQGGKIRVDFAKTQLPEPLRVRLDVKDFATPVQFVSASATGDKASILIEPSGAFDYSAFQTENKLTISVRPLTNEDLDRRAADKPVYTGEKLSLNFQDIDVRSVLQLIADFTNLNLVASDTVQGGITLRLQNVPWDQALDLVLKTKGLDKRKVGSVLLVAPADEIAARERQELESLKQIAELAPLRRELLQVNYAKAADIAKLFQSVTSAESKAEERGSITVDDRTNNIIAYQTQDRLDELRRIVSQLDIPVRQVMIEARIVEANVDYNKQLGVRWGGSTNTSRNGKWTTYGLDDNGDEGGNTNANLTSNIPFVDLGAADATTGIGLGFVTNNTLLDLELSAMEKTGNGEIVSQPKVVTSDKETAKILKGTEIPYQESSSSGATTVSFKEASLSLEVTPQITPDNRIIMEVKVTKDEPDYLNAVLGVPPIKKNEVNAKVLISDGETIVIGGVFSNTQSKVVDKVPFLGDVPYLGRLFRRDVVSESKSELLVFLTPRIMNNQAISVSR” as the sequence, how does the protein production read?
**A.** failed

**Q.** Which protein production does the source give for “MKYLASFRTTLKASRYMFRALALVLWLLIAFSSVFYIVNALHQRESEIRQEFNLSSDQAQRFIQRTSDVMKELKYIAENRLSAENGVLSPRGRETQADVPAFEPLFADSDCSAMSNTWRGSLESLAWFMRYWRDNFSAAYDLNRVFLIGSDNLCMANFGLRDMPVERDTALKALHERINKYRNAPQDDSGSNLYWISEGPRPCVGYFYALTPVYLANRLQALLGVEQTIRMENFFLPGTLPMGVTILDENGHTLISLTGPESKIKGDPRWMQERSWFGYTEGFRELVLKKNLPPSSLSIVYSVPVDKVLERIRMLILNAILLNVLAGAALFTLARMYERRIFIPAESDALRLEEHEQFNRKIVASAPVGICILRTADGVNILSNELAHTYLNMLTHEDRQRLTQIICGQQVNFVDVLTSNNTNLQISFVHSRYRNENVAICVLVDVSSRVKMEESLQEMAQAAEQASQSKSMFLATVSHELRTPLYGIIGNLDLLQTKELPKGVDRLVTAMNNSSSLLLKIISDILDFSKIESEQLKIEPREFSPREVMNHITANYLPLVVRKQLGLYCFIEPDVPVALNGDPMRLQQVISNLLSNAIKFTDTGCIVLHVRADGDYLSIRVRDTGVGIPAKEVVRLFDPFFQVGTGVQRNFQGTGLGLAICEKLISMMDGDISVDSEPGMGSQFTVRIPLYGAQYPQKKGVEGLSGKRCWLAVRNASLCQFLETSLQRSGIVVTTYEGQEPTPEDVLITDEVVSKKWQGRAVVTFCRRHIGIPLEKAPGEWVHSVAAPHELPALLARIYLIEMESDDPANALPSTDKAVSDNDDMMILVVDDHPINRRLLADQLGSLGYQCKTANDGVDALNVLSKNHIDIVLSDVNMPNMDGYRLTQRIRQLGLTLPVIGVTANALAEEKQRCLESGMDSCLSKPVTLDVIKQTLTVYAERVRKSRDS” here?
**A.** failed

**Q.** With “MKYLLIFLLVLAIFVISVTLGAQNDQQVTFNYLLAQGEYRISTLLAVLFAAGFAIGWLICGLFWLRVRVSLARAERKIKRLENQLSPATDVAVVPHSSAAKE” as the sequence, how does the protein production read?
**A.** failed

**Q.** With “MKYNYTVLLSAFTMSVLYSVIYIHSFIIAALITMAFYFLFPYLIFALPLQIMMNKKPKRFSPLYLLYYLAAAFIANAIIFGMLQPSGQSLFQNTAFYLFAVLTALIYWIWDSVLLQKKEA” as the sequence, how does the protein production read?
**A.** failed

**Q.** With “MKYQNFIMRILCLLLILAAVVGYNSMQKKDTQAQESQEITALTKRVEKLEEQNTEILSALEEAAKNQEAAIAQAQRDAKDKDDAAKEDAEGADAADTEESDDSENVYKDGTYTGSAQGFGGAITVQVTLANDEITDIQVTSAPGEDSAYLSQGEGVISSIISAQSTDVDTVSGATFSSTGIINAVVDALGKAEN” as the sequence, how does the protein production read?
**A.** failed

**Q.** For “MKYSLCTISFRHQLISFTDIVQFAYENGFEGIELWGTHAQNLYMQEYETTERELNCLKDKTLEITMISDYLDISLSADFEKTIEKCEQLAILANWFKTNKIRTFAGQKGSADFSQQERQEYVNRIRMICELFAQHNMYVLLETHPNTLTDTLPSTLELLGEVDHPNLKINLDFLHIWESGADPVDSFQQLRPWIQHYHFKNISSADYLHVFEPNNVYAAAGNRTGMVPLFEGIVNYDEIIQEVRDTDHFASLEWFGHNAKDILKAEMKVLTNRNLEVVTS”, which protein production is on record?
**A.** not failed

**Q.** With “MKYWMLLFALLWVSYGTGMARKTEKVVNNGIPWFDDRGEIVNAHGACIVEENGRYYLFGEYKSDKSNAFPGFSCYSSDDLVNWKFERVVLPMQSSGILGPDRVGERVKVMKCPSTGEYVMYMHADDMNYKDPHIGYATCSTIAGEYKLHGPLLYEGKPIRRWDMGTYQDTDGTGYLLLHGGIVYRLSKDYRTAEEKVVSGVGGSHGESPAMFKKDGTYFFLFSNLTSWEKNDNFYFTAPSVKGPWTRQGLFAPEGSLTYNSQTTFVFPLKCGEDTIPMFMGDRWSYPHQASAATYVWMPMQVDGTKLSIPEYWPSWDVDKLKPVNPLRKGKTVDLKKITFSKEADWKVEEGRISSNVKGSTLSIPFTGSCVAVMGETNCHSGYARMNILDKKGEKIYSSLVDFYSKANDHATRFKTPQLAEGEYTLVIEVTGISPTWTDKTKRIYGSDDCFVTITDIVKL” as the sequence, how does the protein production read?
**A.** failed

**Q.** Which protein production does the source give for “MLAALEVAVPALYAVAIVVLTAYGGNLLWLALVHAASERLRDGPVPDPDDLPVPDDDWPVVTVQLPLYNEAEVAHRLIDACVQLDYPRSRLDIQVLDDSTDATTERVARRVAHWQAEGVNITHVRRDDRTGYKAGALANGLQRARGDLIAIFDADFVPRPSFLRRLVPRFFDAPDLGMVQARWGHLNRDDSLLTKVQAFGLDAHFAIEQRVRELAGCFLNFNGTAGVWRRACIEDAGGWAHDTLTEDLDLSYRAQLQGWRLTYVPAAEAPAELPPDMNALRAQQFRWAKGGAETALKLTGRLWRSAQPWRVKLEGTFHLTAHFAFPFILLAALTHAPLLLLKGIGHGPGEVYFAVMGFGLFGFAGFFLAQLFAQRALHPDWRRRLRLFVPFMAGTMGLSLSNTSAVWQALRGTDTAFIRTPKVGSAGGDGWWESRYAIREVPRIVWGELALAVYSTVGLGVVIGLGEWAAVPFQALFALGFALVTASSLRQALTAQQGPTASAPASSPAA” here?
**A.** failed

**Q.** With “MLAALFSIAAVFGFHAEDEPYIVTLPWYELFSSAAKAVAGTIHNPFGLFGARVSVFFIRVLLGYPSVMPLFGFLVLGWHLFRAKPLGPGLFFLVYTLLMALDLSAMFGLSMLPLADLMSGATGRMMASFLSTVIGYPGAWALTAIIAAVLTFYMGRDFIVDTIAGVSGFFGKLLATVQAIRAERHRKRREKEEMRVRKKAERMAAVLEKEQRKRDKKAQRARKAGDASKQKAAPFENSPETPAPVMDVEPAPPLLNPAVSEPVVIPAEVEEIRTPEPAPVRPEEGPEMIIKPGVQEAEADLDERALKVRTHDHVKYRFPSIDLLRRPKDEDESYDERHLAETKDRLLEKLRIYKIDVIRIATTVGPRVALFELELAPEVKISRIKSLENDLAMAMASSSGGIRIIAPIPGKNAIGVEIPISKPRPVVMRSVLQVEKFKNNSMALPIVLGKSISNEVIVDDLAAMPHLLIAGATGAGKSVAINVLLTSLLYSKKPDEVKFVLIDPKRVELKPYKLLKDHFLPKIPGMEEQIIVTDPQKAVSALRSVVREMEHRYELLEQCGVRNIGEYNRKMKDEAMFYLVVVVDELADLMITAGREVEEPITRLAQMARAVGIHLIVATQRPSVDIITGIIKANFPSRIAFQVASKVDSRTILDVSGAEQLLGSGDMLFQSAKMSKPQRIQCPYISLSEVDAITEFIGQQPPLRAECMLPEPPSSSGNGSSSGFDQDRGRRDSMFEEAARLVVMHQQASVSLLQRRLRLGFSRAGRVMDQLEQSGIVSAGDGSKPREVLVKNEDSLELLLRNLD” as the sequence, how does the protein production read?
**A.** failed
